{
  "source": "patent US10421785B2",
  "about": "“Delta receptor agonist peptides and use thereof” (BAR-ILAN UNIVERSITY, priority 2016, dated 2019)",
  "key": {"δ-opioid receptor": {"target": "T1, δ-opioid receptor (Rattus norvegicus, UniProt P33533)", "T1 construct": "delta opioid receptor expressed by the C6 cells; endogenous in cells; host or cells: C6 glioma cells", "T1 sequence (P33533 whole entry)": "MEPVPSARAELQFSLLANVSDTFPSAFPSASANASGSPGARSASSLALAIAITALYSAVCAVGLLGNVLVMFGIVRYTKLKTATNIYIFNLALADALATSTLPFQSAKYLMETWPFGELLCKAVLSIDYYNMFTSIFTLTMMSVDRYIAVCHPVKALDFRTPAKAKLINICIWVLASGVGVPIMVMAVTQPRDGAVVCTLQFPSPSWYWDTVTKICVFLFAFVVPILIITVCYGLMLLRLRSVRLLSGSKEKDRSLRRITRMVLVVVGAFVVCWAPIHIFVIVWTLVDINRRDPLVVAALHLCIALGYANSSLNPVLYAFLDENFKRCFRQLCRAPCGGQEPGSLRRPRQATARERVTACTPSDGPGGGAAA", "test": "Competitive flow cytometry assay of free peptides against DSLET-FITC on C6 cells", "format": "binding", "conditions": "100 nM peptide, 3.5 nM DSLET-FITC", "method": "(§1) The derived peptides were synthesized (Pepmic, Suzhou, China). The binding specificity of the peptides was tested in a competitive assay. C6 cells were grown to 70-80% confluence and removed from the culture, centrifuged and re-suspended to 2×10^6/ml in PBS/0.05% FBS.DSLET-FITC (3.5 nM) was mixture with 0, 3.5, 10, 50 or 100 nM of peptide. In parallel, 2 nM DAMGO-FITC was mixture with 0, 2, 10, 50 or 100 nM of peptide. These mixtures (500 μl) were added to the cells for 5 min at 37° C. Then 500 μl PBS was added and the tubes centrifuge for 5 min at 4250 rpm. The cell pellet was re-suspended in PBS and analyzed by flow cytometry."}, "μ-opioid receptor": {"target": "T2, μ-opioid receptor (Rattus norvegicus, UniProt P33535)", "T2 construct": "50% expressed the μ-opioid receptor; endogenous in cells; host or cells: C6 glioma cells", "T2 sequence (P33535 whole entry)": "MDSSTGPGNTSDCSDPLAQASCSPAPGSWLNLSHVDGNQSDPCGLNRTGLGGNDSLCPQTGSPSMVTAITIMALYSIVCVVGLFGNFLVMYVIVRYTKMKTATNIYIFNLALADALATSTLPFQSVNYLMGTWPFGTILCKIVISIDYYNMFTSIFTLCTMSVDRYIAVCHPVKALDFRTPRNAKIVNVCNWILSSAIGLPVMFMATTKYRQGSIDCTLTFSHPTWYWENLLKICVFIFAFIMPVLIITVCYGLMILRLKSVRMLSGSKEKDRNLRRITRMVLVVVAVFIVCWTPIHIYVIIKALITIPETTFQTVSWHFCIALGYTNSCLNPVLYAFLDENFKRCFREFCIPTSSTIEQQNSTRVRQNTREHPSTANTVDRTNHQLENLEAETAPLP", "test": "Competitive flow cytometry assay of free peptides against DAMGO-FITC on C6 cells", "format": "binding", "conditions": "2 nM DAMGO-FITC", "method": "as §1"}, "[1]": {"target": "T3, δ-opioid receptor (DOR) expressed on C6 cells (Rattus norvegicus, UniProt P33533)", "T3 construct": "delta opioid receptor expressed by the C6 cells; endogenous in cells; host or cells: C6 glioma cells", "T3 sequence (P33533 whole entry)": "as the sequence (P33533 whole entry) above", "test": "Intracellular cyclic AMP in C6 cells (Direct cAMP kit / cAMP ELISA)", "format": "cell-based", "conditions": "for reduction of cAMP levels: 100 nM, C6 cells", "method": "To test the pharmacological function of the peptides showing positive competitive binding versus the DSLET analogue and negative competition versus the DMGO analogue were tested for agonistic activity using the Direct cAMP kit (Enzo). The analogue DSLET was used as a positive control."}, "Sprague-Dawley rats": {"test_system": "Sprague-Dawley rats", "test": "Cue-induced cocaine-seeking behavioral test after forced abstinence"}, "C6 cells membrane (DOR)": {"target": "T4, C6 cells membrane (DOR) (Rattus norvegicus, UniProt P33533)", "T4 construct": "delta opioid receptor expressed by the C6 cells; endogenous in cells; host or cells: C6 glioma cells", "T4 sequence (P33533 whole entry)": "as above", "test": "Microscope validation of GNP-peptide binding to C6 cells", "format": "cell-based", "method": "(§2) C6 cells (1×10^6) were cultured in 5 ml glucose-free DMEM medium containing 5% FCS, 0.5% Penicillin and 0.5% Glutamine. Then, excess amounts of GNPs were added and incubated with cells for 30 minutes at 37° C.\nFluorescent coated (Rhodamine B, Sigma, Israel) GNP-peptidl were incubated with C6 cells for 30 min at 37° C. The cells were subsequently washed three times in PBS prior to confocal imaging using Leica TCS SP5 with Acousto-Optical Beam Splitter microscope to acquire fluorescent and bright field images.\nA Nikon i50 microscope (Tokyo, Japan) equipped with a hyperspectral imaging system (CRI, USA) was used to obtain dark-field images (20× magnification) in order to assess nanoparticle uptake."}, "[2]": {"target": "T5, delta opioid receptor expressed by the C6 cells (Rattus norvegicus, UniProt P33533)", "T5 construct": "delta opioid receptor expressed by the C6 cells; endogenous in cells; host or cells: C6 glioma cells", "T5 sequence (P33533 whole entry)": "as above", "test": "FACS analysis of GNP-peptide binding to C6 cells", "method": "as §2\nCells were incubated with GNP-peptide for 15 min at 37° C. and then washed with PBS, followed by trypsin treatment. Then, cells were centrifuged twice (5 min in 1000 rpm) to wash out unbound nanoparticles. Cells were analyzed for cell-associated NPs by Flow Cytometry (FACS; Cellquest software; Becton-Dickinson & Co., Franklin Lakes, N.J.)."}},
  "note": "“Also recorded” adds a separate entry of the source. Where no end group is shown, it is not given here.",
  "data": [
    {"molecule": "IIAGEYKQMLTL [Peptide 2]", "values": [
      {"measurement": "maximum inhibition of DSLET-FITC binding", "setting": "δ-opioid receptor", "result": 45, "unit": "%"},
      {"measurement": "inhibition of DAMGO-FITC binding to the μ-opioid receptor", "setting": "μ-opioid receptor", "result": "neither Peptide 1 or 2 inhibited binding"},
      {"measurement": "reduction of cAMP levels", "setting": "[1]", "result": "~80", "unit": "%"}
    ]},
    {"molecule": "DPDPE [reference compound]", "values": [
      {"measurement": "active lever presses (seeking behavior) vs CSF group", "setting": "Sprague-Dawley rats; injected into the NAc once after 30 days of abstinence, observed at days 30 and 60", "result": "reduced seeking behavior"}
    ]},
    {"molecule": "NGNDRTDQMPLP [Peptide 1]", "values": [
      {"measurement": "maximum inhibition of DSLET-FITC binding", "setting": "δ-opioid receptor", "result": 48, "unit": "%"},
      {"measurement": "inhibition of DAMGO-FITC binding to the μ-opioid receptor", "setting": "μ-opioid receptor", "result": "neither Peptide 1 or 2 inhibited binding"},
      {"measurement": "reduction of cAMP levels", "setting": "[1]", "result": "~80", "unit": "%"},
      {"measurement": "active lever presses vs CSF group", "setting": "Sprague-Dawley rats; injection into the NAc, two doses", "result": "decreased active lever presses"}
    ]},
    {"molecule": "CTAP [reference compound]", "values": [
      {"measurement": "cue-induced cocaine-seeking behavior", "setting": "Sprague-Dawley rats; intra-NAc injection, 3 μg and 30 ng, 1 day or 30 days of forced abstinence", "result": "no behavioral effect"}
    ]},
    {"molecule": "Oc1ccc2c3c1O[C@H]1c4[nH]c5ccccc5c4C[C@@]4(O)[C@@H](C2)N(CC2CC2)CC[C@]314", "note": "[naltrindole, reference compound]", "values": [
      {"measurement": "binding of GNP conjugated peptide 1 to the cells membrane after blocking the DOR", "setting": "C6 cells membrane (DOR)", "result": "significant decrease in the binding; also recorded: prevented the binding of the peptide to the cells membrane"},
      {"measurement": "cue-induced cocaine-seeking behavior", "setting": "Sprague-Dawley rats; intra-NAc infusion, 1 μg, day 1 of forced abstinence", "result": "increased cue-induced cocaine-seeking behavior"}
    ]},
    {"molecule": "peptide 1 conjugated to gold nanoparticles: 20 nm PEG-coated gold nanoparticles with the peptide covalently conjugated to the carboxylic group of SH-PEG-COOH (NGNDRTDQMPLP; also: covalently conjugated to carboxyl of SH-PEG-COOH on 20 nm PEG-coated gold nanoparticles, site not given here)", "values": [
      {"measurement": "cAMP decreased to % from the initiation state", "setting": "[1]; GNP conjugated to peptide 1, C6 cells", "result": 80.70, "unit": "%"},
      {"measurement": "binding to the delta opioid receptor on C6 cells by FACS relative to vehicle", "setting": "[2]", "result": "higher affinity and exhibited better binding to the cells relative to vehicle"},
      {"measurement": "binding to the C6 cells membrane (microscope)", "setting": "C6 cells membrane (DOR); listed as Gold nanoparticle (GNP) conjugated peptide 1", "result": "bind mainly the C6 cells membrane"},
      {"measurement": "binding to the C6 cells membrane (microscope)", "setting": "C6 cells membrane (DOR); listed as Peptide 1 conjugated to GNP", "result": "increased binding to the C6 cells membrane"},
      {"measurement": "active lever presses vs CSF group", "setting": "Sprague-Dawley rats; GNP conjugate, injection into the NAc", "result": "decreased active lever presses"},
      {"measurement": "active lever presses vs CSF group", "setting": "Sprague-Dawley rats; GNP conjugate, intra-nasal, tested two hours later", "result": "Significantly less active lever presses"}
    ]}
  ]
}
